Here are results for 1 molecule from article PMC4605301, “hSSB1 (NABP2/ OBFC2B) is required for the repair of 8-oxo-guanine by the hOGG1-mediated base excision repair pathway” (Nucleic Acids Research, 2015).

Assay [1] addresses GST-hOGG1 wild type (human, UniProt O15527 1-345). Briefly: cell-based or functional assay.
Assay [2] concerns the target T1, hOGG1 F319A (human, UniProt O15527 1-345, F319A).
T1 construct: human 8-oxoguanine glycosylase 1 (hOGG1) with F319A, from the pGEX-hOGG1 vector; Mutant defective for 8-oxoG recognition; also called hOGG1 mutant (F319A)
Briefly: pull-down; biotinylated dsDNA with an 8oxoG lesion on Dynabeads M-280 Streptavidin; 2 μg each of hSSB1 and hOGG1 F319A pre-incubated in buffer K with 75 mM KCl at 4°C, then 2 h with beads at 4°C, wash with 100 mM KCl; SDS-PAGE, Coomassie blue. The note with it: both partners purified.

T1 sequence (O15527 whole entry F319A): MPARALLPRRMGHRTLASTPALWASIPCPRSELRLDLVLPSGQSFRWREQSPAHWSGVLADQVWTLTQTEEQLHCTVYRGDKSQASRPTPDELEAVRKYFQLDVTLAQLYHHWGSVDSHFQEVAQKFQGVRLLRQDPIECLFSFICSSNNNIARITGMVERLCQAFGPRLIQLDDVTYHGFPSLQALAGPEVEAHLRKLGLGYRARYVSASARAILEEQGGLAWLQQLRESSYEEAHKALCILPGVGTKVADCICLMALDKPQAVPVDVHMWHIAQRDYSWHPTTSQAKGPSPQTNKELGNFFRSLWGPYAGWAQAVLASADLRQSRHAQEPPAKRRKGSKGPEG
Chain of GST-hOGG1 wild type (O15527 whole entry): as the sequence (O15527 whole entry F319A) above, with A319F counted along it

B1: recombinant hSSB1 full length, N-terminal (His)6-tag (natural protein, human, UniProt Q9BQ15 1-211, looked up)
chain: MTTETFVKDIKPGLKNLNLIFIVLETGRVTKTKDGHEVRTCKVADKTGSINISVWDDVGNLIQPGDIIRLTKGYASVFKGCLTLYTGRGGDLQKIGEFCMVYSEVPNFSEPNPEYSTQQAPNKAVQNDSNPSASQPTTGPSAASPASENQNGNGLSAPPGPGGGPHPPHTPSHPPSTRITRSQPNHTPAGPPGPSSNPVSNGKETRRSSKR
notes: also called hSSB1 Full length (FL); purified recombinant hSSB1; source: E. coli T7 shuffle strain, purified (Superdex 200)
Regarding B1, the “8-oxoG incision activity of 20 nM recombinant hOGG1 on a 22 bp dsDNA with 8-oxoG opposite cytosine, with increasing concentrations of hSSB1 (37°C, 30 min)” value in assay [1] was found to be 12 fold. Moreover, the binding result in assay [2] is “binds”.
